The results in this text go back to patent US7932227 (UNIVERSITY OF VIRGINIA PATENT FOUNDATION, dated 2011).

For assay [1], the target named is T1, human syndecan-1 (SDC1) (human, UniProt P18827 23-310, heparan sulfate and chondroitin sulfate chains; the lacritin-bindable form is partly or wholly deglycanated (heparanase or heparitinase)).
T1 construct: Seen as 190 kDa multimer and 80 kDa band on blots; also called cell surface SDC1; native SDC1
T1 sequence: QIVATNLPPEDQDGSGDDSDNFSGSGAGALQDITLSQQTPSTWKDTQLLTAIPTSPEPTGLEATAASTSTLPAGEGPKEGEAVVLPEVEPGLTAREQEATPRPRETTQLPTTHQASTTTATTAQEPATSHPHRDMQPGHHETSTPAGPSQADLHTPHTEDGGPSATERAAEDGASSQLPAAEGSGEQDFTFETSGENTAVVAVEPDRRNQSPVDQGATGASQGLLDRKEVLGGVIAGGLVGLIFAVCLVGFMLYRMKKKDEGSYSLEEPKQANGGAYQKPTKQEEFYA
Put plainly: soluble competitor in lacritin-intein affinity precipitation of SDC1. The protocol: (§1) All lacritin truncations were expressed as intein fusion proteins for affinity precipitation. Asterisk indicates mitogenic domain (Wang et al, submitted), and boxes represent PSIPRED-predicted alpha helices. (B) Lacritin-, C-5-, C-10-, C-15-, C-25- and C-59-intein beads were incubated with lysates from HEK293T cells stably expressing human SDC1. Beads were washed and treated with heparitinase I/chondroitinase ABC. The digests were centrifuged, and pellets (P) and supernatants (S) blotted with mAb B-B4 for SDC1 core protein, all as in FIG. 2. (C) Incubation of lacritin-, N-15- and N-24-intein beads with the same human SDC1 lysates was followed with identical washing, heparitinase I/chondroitinase ABC digestion, centrifugation and B-B4 mAb blotting. Lys, lysate. Figure 3B: Figure 3C: Figure 4A: FIG. 4. Lacritin-SDC1 binding is inhibited by soluble hS1ED, lacritin and N-24, but not by C-25, C-59, HS, CS, SDC2 or SDC4. (A) Top row, lacritin-intein beads were incubated with human SDC1 lysates from stably expressing HEK293T cells in the presence of increasing amounts of soluble HS (70-700 µg), HS (700 µg) plus CS (700 µg), lacritin (14-700 µg) or no inhibitor (−). Quantity of soluble inhibitor was calibrated relative to the approximately 7-8 µg of human SDC1 elutable from lacritin-intein beads with 1 M NaCl. […] (B) Quantification of inhibition binding.

The target of assay [2] is T1, human syndecan-1 (SDC1). Nature of the assay: N-24-intein beads, HEK293T/SDC1 lysate, B-B4 blot. As to the method:
as §1

Assay [3] addresses T1, human syndecan-1 (SDC1). Put plainly: soluble competitor of lacritin-intein beads for SDC1 in HEK293T lysate, B-B4 blot. The protocol: as §1
The target in assay [4] is T2, alpha-2C-adrenergic receptor (ADRA2C) (human, UniProt P18825 1-462, limits assumed).
T2 sequence (looked up): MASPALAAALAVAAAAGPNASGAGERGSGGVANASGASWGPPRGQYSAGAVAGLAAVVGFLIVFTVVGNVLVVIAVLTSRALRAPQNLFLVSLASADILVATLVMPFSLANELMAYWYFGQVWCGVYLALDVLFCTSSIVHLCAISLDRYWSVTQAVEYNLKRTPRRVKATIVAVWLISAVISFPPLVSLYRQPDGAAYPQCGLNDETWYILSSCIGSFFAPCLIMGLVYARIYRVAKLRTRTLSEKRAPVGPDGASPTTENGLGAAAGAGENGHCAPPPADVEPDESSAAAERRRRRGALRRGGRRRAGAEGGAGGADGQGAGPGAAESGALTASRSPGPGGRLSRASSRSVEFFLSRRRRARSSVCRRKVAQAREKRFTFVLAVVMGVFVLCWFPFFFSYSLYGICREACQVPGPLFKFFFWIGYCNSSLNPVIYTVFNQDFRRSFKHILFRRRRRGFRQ
Nature of the assay: low salt competition against 125I-iodoclonidine on immobilized human ADRA2C, repeated assays. The protocol:
If we are correct that syndecan-1 increases lacritin's affinity for a G-protein coupled receptor (GPCR), possibly some low affinity GPCR binding can be detected without syndecan-1 in low salt. To ask this question, a low salt screen of 31 immobilized human GPCRs in which 10 nM lacritin, N-24 or C-25 were asked to compete with 125I-receptor ligand for receptor binding. […] Although preliminary, this compares to 1698 nM for native agonist epinephrine. Possibly N-24's lack of seven negatively charged residues may improve binding in the absence of syndecan-1.

The target in assay [5] is T1, human syndecan-1 (SDC1). Put plainly: C-10-intein beads, HEK293T/SDC1 lysate, B-B4 blot. As to the method:
as §1

Assay [6] concerns the target T1, human syndecan-1 (SDC1). Put plainly: N-15-intein beads, HEK293T/SDC1 lysate, B-B4 blot. As to the method: as §1
Assay [7] concerns the target T1, human syndecan-1 (SDC1). Put plainly: C-5-intein beads, HEK293T/SDC1 lysate, B-B4 blot. As to the method:
as §1

Another assay addresses T3, human syndecan-2 (SDC2) (human, UniProt P34741 19-201, heparan sulfate chains).
T3 construct: also called native SDC2
Nature of the assay: SDC2 purified on FGF2-GST, salt eluted, heparitinase digested, incubated with lacritin-intein beads. As to the method:
(§2) Lysates were cleared by centrifugation (20,000×g) at 4° C., and protein concentration of supernatant was estimated by the BCA assay (Pierce, Rockford Ill.). Lacritin-intein or lacritin-GST (5 µg) and FGF2-GST fusion proteins were respectively bound to chitin beads (New England Biolabs, Ipswich Mass.) or glutathione-Sepharose beads (Amersham Biosciences, Piscataway N.J.). Beads were incubated with lysates (~200 µg of SDC1 stably expressing HEK293T cells) overnight at 4° C., and washed three times with binding buffer as above (each wash three times the bead volume). In competition assays, SDC1 lysates were mixed with increasing amounts of soluble lacritin, HS, HS plus CS (Seikagaku America, Falmouth Mass.), bacterially expressed human SDC1 ectodomain (hS1ED), native SDC2, native SDC4, N-24 or C-25. Mixtures were then applied to lacritin immobilized beads, and further studied as described below. For sequential pull down assays, cell lysates were sequentially affinity precipitated with FGF2-GST or lacritin-intein. After FGF2-GST depletion of all available FGF-bindable SDC1, one-half was precipitated with lacritin-intein. The other half was methanol precipitated overnight and resuspended in heparitinase buffer. […]

The target in the next assay is T4, human syndecan-4 (SDC4) (human, UniProt P31431 19-198, heparan sulfate chains).
T4 construct: also called native SDC4
T4 sequence (looked up): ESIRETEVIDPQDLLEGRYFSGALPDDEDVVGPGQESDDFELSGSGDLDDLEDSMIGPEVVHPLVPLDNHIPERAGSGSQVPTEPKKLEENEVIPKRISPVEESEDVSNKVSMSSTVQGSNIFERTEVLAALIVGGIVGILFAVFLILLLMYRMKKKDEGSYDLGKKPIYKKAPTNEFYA
Nature of the assay: SDC4 purified on FGF2-GST, salt eluted, heparitinase digested, incubated with lacritin-intein beads. The protocol:
as §2

The target in assay [8] is T1, human syndecan-1 (SDC1). Nature of the assay: lacritin-intein-chitin column, detergent lysate of surface biotinylated HSG cells, 1 M NaCl elution, streptavidin blot, mass spectrometry. As to the method: Cell surface biotinylation, and affinity chromatography followed the method of Chen et al (1997). Briefly, six 150 mm culture dishes of 80% confluent HSG cells were washed twice on ice with ice-cold PBS and incubated for 30 min with EZ-Link Sulfo-NHS-LC Biotin (Pierce, Rockford Ill.). Cells were then washed twice with PBS-glycine, gently loosened with a cell scraper, and pelleted at 4° C. The pellet was twice resuspended in 25 ml PBS-glycine, and incubated for 30 min in 1 ml lysis buffer (50 mM Tris HCl, pH 7.4, 100 mM NaCl, 5 mM MnCl2, 2 mM PMSF, 200 mM n-octyl-β-D-glucopyranoside, and protease inhibitors (Roche Diagnostics, Penzberg Germany)). Lysate was centrifuged for 15 min at 4° C., and the supernatant applied to a 1 ml pre-column then washed through with 1 ml of binding buffer (50 mM Tris HCl, pH 7.4, 100 mM NaCl, 5 mM MnCl2, 2 mM PMSF, 50 mM n-octyl-β-D-glucopyranoside) and collected. […] For the latter, blots were blocked with PBS containing 0.1% Tween-20 and 2.5% milk for 1 h at 37° C., washed three times with PBS/0.1% Tween-20, incubated in 50 ml of 1:1000 streptavidin-horseradish peroxidase conjugate (Amersham Biosciences, Piscataway N.J.) in PBS/0.1% Tween-20, washed five times with the same buffer and then detected using ECL reagent (Pierce, Rockford Ill.). […]

T3 sequence (P34741 19-201 limits assumed): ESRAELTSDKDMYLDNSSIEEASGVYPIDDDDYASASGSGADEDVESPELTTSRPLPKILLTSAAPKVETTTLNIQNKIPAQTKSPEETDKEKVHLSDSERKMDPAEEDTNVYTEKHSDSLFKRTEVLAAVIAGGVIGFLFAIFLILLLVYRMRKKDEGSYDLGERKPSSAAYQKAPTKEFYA

B1: soluble C-59 lacritin (ligand)
chain: EDASSDSTGADPAQEAGTSKPNEEISGPAEPASPPETTTTAQETSAAAVQGTAKVTSSRQ
notes: Range counted by me
Consider B1, for which the binding result with human syndecan-1 (SDC1) [1] is “no binding (tested: 14 µg)”.

B2: N-24 lacritin-intein (ligand, not shown: small tags and cut ends)
chain: ISGPAEPASPPETTTTAQETSAAAVQGTAKVTSSRQELNPLKSIVEKSILLTEQALAKAGKGMHGGVPGGKQFIENGSEFAQKLLKKFSLLKPWA
Regarding B2, the binding result in the assay with human syndecan-1 (SDC1) [2] is on record as “binds”.

B3: soluble N-24 lacritin (ligand)
chain: B2 chain
notes: Range counted by me
Consider B3, for which the binding result with human syndecan-1 (SDC1) [3] is reported as “binds”. The Ki in [4] turned out to be 1.29 µM.

B4: soluble C-25 lacritin (ligand)
chain: EDASSDSTGADPAQEAGTSKPNEEISGPAEPASPPETTTTAQETSAAAVQGTAKVTSSRQELNPLKSIVEKSILLTEQALAKAGKGMHGGVPGG
notes: Range counted by me
Take B4: in the assay with human syndecan-1 (SDC1) [1], the binding result was “no binding (tested: 14 µg)”.

B5: C-10 lacritin-intein (ligand, not shown: small tags and cut ends)
chain: EDASSDSTGADPAQEAGTSKPNEEISGPAEPASPPETTTTAQETSAAAVQGTAKVTSSRQELNPLKSIVEKSILLTEQALAKAGKGMHGGVPGGKQFIENGSEFAQKLL
For the molecule B5, in the assay with human syndecan-1 (SDC1) [5], the binding result was “binds”.

B6: N-15 lacritin-intein (ligand, not shown: small tags and cut ends)
chain: AGTSKPNEEISGPAEPASPPETTTTAQETSAAAVQGTAKVTSSRQELNPLKSIVEKSILLTEQALAKAGKGMHGGVPGGKQFIENGSEFAQKLLKKFSLLKPWA
For B6, in the assay with human syndecan-1 (SDC1) [6], the binding result is listed as “binds”.

B7: C-5 lacritin-intein (ligand, not shown: small tags and cut ends)
chain: EDASSDSTGADPAQEAGTSKPNEEISGPAEPASPPETTTTAQETSAAAVQGTAKVTSSRQELNPLKSIVEKSILLTEQALAKAGKGMHGGVPGGKQFIENGSEFAQKLLKKFSL
notes: All lacritin truncations were expressed as intein fusion proteins
As for B7, the binding result with human syndecan-1 (SDC1) [7] is reported as “binds”.

B8: lacritin-intein (lacritin coupled to chitin beads via chitin-binding intein) (ligand, not shown: small tags and cut ends)
chain: EDASSDSTGADPAQEAGTSKPNEEISGPAEPASPPETTTTAQETSAAAVQGTAKVTSSRQELNPLKSIVEKSILLTEQALAKAGKGMHGGVPGGKQFIENGSEFAQKLLKKFSLLKPWA
notes: Bacterial fusion protein held on chitin beads; also called lacritin-intein beads; lacritin column
With B8, the binding result is listed as “no binding” in the assay with human syndecan-2 (SDC2), “no binding” with human syndecan-4 (SDC4) and “binds” with human syndecan-1 (SDC1) [8].

B9: soluble lacritin (recombinant) (ligand)
chain: B8 chain
notes: also called intact lacritin
For the molecule B9, in the assay with human syndecan-1 (SDC1) [3], the binding result is given as “binds”.
